Publication PMC13376213 (2026)
Values belong to the binder of their own block, whether it stands above or below them.

What was measured:
Assay in all cases: FP displacement
[1] = biological target: T1, CCDC88B (Homo sapiens (Human), UniProt A6NC98)
T1 chain: QLEEELFQLRQGPAG

[2] = biological target: T2, MFSD2B (Homo sapiens (Human), UniProt A6NFX1)
T2 chain: DVVDDFQLQHRHGPG

[3] = biological target: T3, HIF1A (Homo sapiens (Human), UniProt Q16665)
T3 chain: PYIPMDDDFQLRSFDQLS

[4] = biological target: T4, ROBO1 (Homo sapiens (Human), UniProt Q9Y6N7)
T4 chain: AQSKTQLEVRPV

[5] = biological target: T5, CEP192 (Homo sapiens (Human), UniProt Q8TEP8)
T5 chain: LQPSSKASLESTSDL

[6] = biological target: T6, USP19 (Homo sapiens (Human), UniProt O94966)
T6 chain: PFQPGRMALESQSPG

[7] = biological target: T7, IRAG1 (Homo sapiens (Human), UniProt Q9Y6F6)
T7 chain: TNSSGKMALNSPQPG

Kd [1]: 40.1 µM
Kd [2]: 0.75 µM
Kd [3]: 1.5 µM
B1: USP33 (protein)
chain: HLYICHTCQIEAEKIEKRRKTELEIFIRLNRAFQKEDSPATFYCISMQWFREWESFVKGKDGDPPGPIDNTKIAVTKCGNVMLRQGADSGQISEETWNFLQSIYGGGPEVILRPPV

Kd [4]: 14 µM
Kd [5]: 14.1 µM
Kd [6]: 40.6 µM
Kd [7]: 7.86 µM
B2: USP33 (protein)
chain: RNHCPHLDSVGEITKEDLIQKSLGTCQDCKVQGPNLWACLENRCSYVGCGESQVDHSTIHSQETKHYLTVNLTTLRVWCYACSKEVFLDRKLGTQ
